According to PMC8166090, “Improvements of the productivity and saccharification efficiency of the cellulolytic β-glucosidase D2-BGL in Pichia pastoris via directed evolution” (Biotechnology for Biofuels, 2021):

T1: D2-BGL (WT D2; Pp D2-BGL) (Chaetomella raphigera, UniProt A0A068FT77)
T1 construct: 722 residues, 76 kDa theoretical; alpha-mating factor secretion signal upstream (pGAPZalphaC-D2); expressed in Pichia pastoris SMD 1168; glycosylated
T1 sequence (A0A068FT77 1-722): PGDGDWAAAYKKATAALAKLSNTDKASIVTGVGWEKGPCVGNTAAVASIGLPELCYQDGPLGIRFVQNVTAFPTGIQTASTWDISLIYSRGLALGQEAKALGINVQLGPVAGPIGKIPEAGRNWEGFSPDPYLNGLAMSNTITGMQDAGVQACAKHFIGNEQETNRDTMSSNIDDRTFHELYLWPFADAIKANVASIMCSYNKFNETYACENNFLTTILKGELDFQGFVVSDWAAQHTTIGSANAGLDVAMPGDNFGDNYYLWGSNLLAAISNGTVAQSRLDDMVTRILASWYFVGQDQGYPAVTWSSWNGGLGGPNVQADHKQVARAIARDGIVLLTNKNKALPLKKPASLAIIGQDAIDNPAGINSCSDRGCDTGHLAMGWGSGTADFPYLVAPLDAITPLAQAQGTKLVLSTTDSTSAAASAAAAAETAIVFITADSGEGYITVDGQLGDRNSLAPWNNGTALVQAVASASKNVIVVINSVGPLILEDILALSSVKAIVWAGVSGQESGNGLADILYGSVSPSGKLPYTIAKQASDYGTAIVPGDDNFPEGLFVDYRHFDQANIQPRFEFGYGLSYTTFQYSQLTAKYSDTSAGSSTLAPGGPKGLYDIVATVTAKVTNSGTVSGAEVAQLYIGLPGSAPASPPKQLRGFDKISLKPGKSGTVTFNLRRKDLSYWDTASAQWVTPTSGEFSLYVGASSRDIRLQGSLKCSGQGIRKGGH


Legend:
[1] = molecular target: T2, D2-BGL (WT D2; Pp D2-BGL) (Chaetomella raphigera, UniProt A0A068FT77, D224G/F256M/Y260D); assay: inhibition of pNPG hydrolysis with […] glucose; assay type: biochemical; conditions: pNPG as substrate; 50 mM NaOAc pH 5, 55 °C; product inhibition; read-out: Mut M
T2 construct: 722 residues, 76 kDa theoretical; alpha-mating factor secretion signal upstream (pGAPZalphaC-D2); expressed in Pichia pastoris SMD 1168; glycosylated

[2] = molecular target: T1, D2-BGL (WT D2; Pp D2-BGL); assay: inhibition of pNPG hydrolysis with […] glucose; assay type: biochemical; conditions: pNPG as substrate; 50 mM NaOAc pH 5, 55 °C; product inhibition
[3] = molecular target: T2, D2-BGL (WT D2; Pp D2-BGL); assay: p-nitrophenol release at […] nm, […] pNPG, substrate inhibition fit; assay type: biochemical; conditions: 50 mM NaOAc pH 5, 55 °C
purified protein = substrate: O=[N+]([O-])c1ccc(O[C@@H]2O[C@H](CO)[C@@H](O)[C@H](O)[C@H]2O)cc1; assay: purified protein; conditions: 50 mM NaOAc pH 5, 55 °C

Row | Molecule | Ki [1] [µM] | Ki [2] [µM] | kinetic constant from substrate inhibition fit [3] [mM] | Km (purified protein) [µM] | Vmax (purified protein) [µM/min]
1 | OC[C@H]1OC(O)[C@H](O)[C@@H](O)[C@@H]1O (stereo partly shown) [glucose] | 1590 ± 70 | 3230 ± 1080 |  |  | 
2 | O=[N+]([O-])c1ccc(O[C@@H]2O[C@H](CO)[C@@H](O)[C@H](O)[C@H]2O)cc1 [pNPG, p-nitrophenyl β-D-glucopyranoside] |  |  | 3.21 ± 0.56 |  | 
3 | D2-BGL (WT D2; Pp D2-BGL) (Chaetomella raphigera) (protein) PGDGDWAAAYKKATAALAKLSNTDKASIVTGVGWEKGPCVGNTAAVASIGLPELCYQDGPLGIRFVQNVTAFPTGIQTASTWDISLIYSRGLALGQEAKALGINVQLGPVAGPIGKIPEAGRNWEGFSPDPYLNGLAMSNTITGMQDAGVQACAKHFIGNEQETNRDTMSSNIDDRTFHELYLWPFADAIKANVASIMCSYNKFNETYACENNFLTTILKGELDFQGFVVSDWAAQHTTIGSANAGLDVAMPGDNFGDNYYLWGSNLLAAISNGTVAQSRLDDMVTRILASWYFVGQDQGYPAVTWSSWNGGLGGPNVQADHKQVARAIARDGIVLLTNKNKALPLKKPASLAIIGQDAIDNPAGINSCSDRGCDTGHLAMGWGSGTADFPYLVAPLDAITPLAQAQGTKLVLSTTDSTSAAASAAAAAETAIVFITADSGEGYITVDGQLGDRNSLAPWNNGTALVQAVASASKNVIVVINSVGPLILEDILALSSVKAIVWAGVSGQESGNGLADILYGSVSPSGKLPYTIAKQASDYGTAIVPGDDNFPEGLFVDYRHFDQANIQPRFEFGYGLSYTTFQYSQLTAKYSDTSAGSSTLAPGGPKGLYDIVATVTAKVTNSGTVSGAEVAQLYIGLPGSAPASPPKQLRGFDKISLKPGKSGTVTFNLRRKDLSYWDTASAQWVTPTSGEFSLYVGASSRDIRLQGSLKCSGQGIRKGGH |  |  |  | 310 ± 140 | 575
4 | D2-BGL (WT D2; Pp D2-BGL) (Chaetomella raphigera; D224G/F256M/Y260D) (protein) PGDGDWAAAYKKATAALAKLSNTDKASIVTGVGWEKGPCVGNTAAVASIGLPELCYQDGPLGIRFVQNVTAFPTGIQTASTWDISLIYSRGLALGQEAKALGINVQLGPVAGPIGKIPEAGRNWEGFSPDPYLNGLAMSNTITGMQDAGVQACAKHFIGNEQETNRDTMSSNIDDRTFHELYLWPFADAIKANVASIMCSYNKFNETYACENNFLTTILKGELGFQGFVVSDWAAQHTTIGSANAGLDVAMPGDNMGDNDYLWGSNLLAAISNGTVAQSRLDDMVTRILASWYFVGQDQGYPAVTWSSWNGGLGGPNVQADHKQVARAIARDGIVLLTNKNKALPLKKPASLAIIGQDAIDNPAGINSCSDRGCDTGHLAMGWGSGTADFPYLVAPLDAITPLAQAQGTKLVLSTTDSTSAAASAAAAAETAIVFITADSGEGYITVDGQLGDRNSLAPWNNGTALVQAVASASKNVIVVINSVGPLILEDILALSSVKAIVWAGVSGQESGNGLADILYGSVSPSGKLPYTIAKQASDYGTAIVPGDDNFPEGLFVDYRHFDQANIQPRFEFGYGLSYTTFQYSQLTAKYSDTSAGSSTLAPGGPKGLYDIVATVTAKVTNSGTVSGAEVAQLYIGLPGSAPASPPKQLRGFDKISLKPGKSGTVTFNLRRKDLSYWDTASAQWVTPTSGEFSLYVGASSRDIRLQGSLKCSGQGIRKGGH |  |  |  | 180 ± 50 | 374
